Results as given in the supplement of paper PMC10567573.
± gives the standard deviation.

Test: protein stability index of a GFP-peptide fusion (GPS, HEK-293T) (PSI 1-6); higher = more stable
[1] = treatment: DMSO, c terminus: a fixed tail appended
[2] = treatment: MLN4924 1 uM, 8 h, c terminus: a fixed tail appended
[3] = treatment: DMSO, c terminus: native
[4] = treatment: MLN4924 1 uM, 8 h, c terminus: native
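Note: 24-mer peptide tiles fused after GFP, lentivirally expressed, FACS-sorted into six equal bins by GFP/DsRed ratio, decoded by Illumina sequencing, PSI is the read-weighted mean bin number.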

Sequence	protein stability index [1]	protein stability index [2]	protein stability index [3]	protein stability index [4]
NPEVGIFVSIAQSEQESLLQQAQA [SMG5]	4.09 ± 0.3	4.23 ± 0.24		
PLQFLGLFENSLCRLTHIPAYKVS [ZER1]	2.02 ± 0.55	2.08 ± 0.5		
QALSNVPPLRNYFLEEDNYKNIKR [USP39]	3.77 ± 0.28	4.18 ± 0.48		
PPKIRLKPHRLGDSEHEPVYRAEL [PWWP2B]	4.02 ± 0.19	4.09 ± 0.095		
THLLMGLASGRIILILEGGYNLTS [HDAC6]	2.89 ± 0.46	3.02 ± 0.58		
NSQESRSDLEDMEEEEGTRSPTLE [SMG5]	5.56 ± 0.16	5.44 ± 0.23		
VVHQRVHSGEKPYKCSDCGKTFKQ [ZNF232]	3.29 ± 0.25	3.43 ± 0.23		
LTFFAFLHCWLNAFAEMLRFGDRM [SOAT1]	3.4 ± 0.23	2.9 ± 0.5		
LGSKHKVCMDLRANLKQVKKEDTE [TNNI2]	4.76 ± 0.16	4.94 ± 0.23		
FSGDGEYIVAGSARQHALYIWEKS [RBBP5]	2.59 ± 0.32	2.57 ± 0.32		
SRPELLQPLNFVRFYLPLLIHQHE [GLT8D2]	3.09 ± 0.33	3.14 ± 0.59		
SLSAGEKPGFLAPRDLPKHTPLIS [RASAL3]	3.56 ± 0.23	3.65 ± 0.32		
SAVVGDVLVLTKPLGTQVAVNAHQ [SEPHS2]	2.95 ± 0.3	3.1 ± 0.31		
SFNHNAHLTVHKRIHTGERPYMCK [ZNF8]	2.76 ± 0.2	2.9 ± 0.22		
AARAVRANDINYQDQIPRTLEEFV [FEM1B]	3.96 ± 0.21	3.77 ± 0.32		
MSPYLVPDTQALCHHLPVIRQLAT [SMG5]	2.3 ± 0.28	2.52 ± 0.22		
REDQLDTVLAVLEDSSRDIREALH [INTS4]	4.21 ± 0.36	4.38 ± 0.34		
AQQDLAPDPDAWLRALGELLRRDL [FANCE]	3.11 ± 0.4	3.15 ± 0.3		
TSPVYRGSSSGPSSPARVSTTPR [MTUS2]			4.45 ± 0.2	4.48 ± 0.13
LFRCIQNMPETLPNNSCYSAGIAK [TNFSF13B]	2.63 ± 0.3	2.68 ± 0.16		
RQEAIYEMSRGEQDLIEDLKLARK [NET1]	4.69 ± 0.18	4.79 ± 0.099		
GKKQVPCFASMLTKKLHFFPKSN [CASP6]			2.82 ± 0.27	3.51 ± 0.69
SFMLQDRAKGLLGTTVTFDDLMGI [FEM1C]	2.49 ± 0.24	2.66 ± 0.14		
PIETLIRDMLLSGSSFNWPYMAIQ [NR2F2]	3.34 ± 0.18	2.95 ± 0.62		
EPHGKMFNEQTWEVSQQDPSHGEV [ZSCAN9]	5.06 ± 0.16	5.04 ± 0.18		
